Publication PMC4945409

Molecular target: wild-type KDPG aldolase scaffold (1wa3)
Assay: SEC

wild-type KDPG aldolase scaffold (1wa3) (enzyme)
stoichiometry N: 3
